Measurements as given in paper doi:10.64898/2025.12.10.692585.

Target: Porcine RNA polymerase II, purified (porcine) (UniProt I3LGP4)
Test: mass photometry

Substance “Porcine RNA polymerase II, purified (from UniProt I3LGP4 127-1300; P60899 1-125; A0A4X1VYD0 1-67; A0A8D0JYF1 1-58) (complex)” has a stoichiometry N of 2.
